# Experimental data taken from patent publication US12589164.
# B1: membrane type serine protease 1 (MT-SP1) (protein)
# chain: VVGGTDADEGEWPWQVSLHALGQGHICGASLISPNWLVSAAHCYIDDRGFRYSDPTQWTAFLGLHDQSQRSAPGVQERRLKRIISHPFFNDFTFDYDIALLELEKPAEYSSMVRPICLPDASHVFPAGKAIWVTGWGHTQYGGTGALILQKGEIRVINQTTCENLLPQQITPRMMCVGFLSGGVDSCQGDSGGPLSSVEADGRIFQAGVVSWGDGCAQRNKPGVYTRLPLFRDWIKENTGV
# B2: MMP2 (protein)
# chain: YNFFPRKPKWDKNQITYRIIGYTPDLDPETVDDAFARAFQVWSDVTPLRFSRIHDGEADIMINFGRWEHGDGYPFDGKDGLLAHAFAPGTGVGGDSHFDDDELWTLGEGQVVRVKYGNADGEYCKFPFLFNGKEYNSCTDTGRSDGFLWCSTTYNFEKDGKYGFCPHEALFTMGGNAEGQPCKFPFRFQGTSYDSCTTEGRTDGYRWCGTTEDYDRDKKYGFCPETAMSTVGGNSEGAPCVFPFTFLGNKYESCTSAGRSDGKMWCATTANYDDDRKWGFCPDQGYSLFLVAAHEFGHAMGLEHSQDPGALMAPIYTYTKNFRLSQDDIKGIQELYGASPDIDLGTGPTPTLGPVTPEICKQDIVFDGIAQIRGEIFFFKDRFIWRTVTPRDKPMGPLLVATFWPELPEKIDAVYEAPQEEKAVFFAGNEYWIYSASTLERGYPKPLTSLGLPPDVQRVDAAFNWSKNKKTYIFAGDKFWRYNEVKKKMDPGFPKLIADAWNAIPDNLDAVVDLQGGGHSYFFKGAYYLKLENQSLKSVKFGSIKSDWLGC
# How the values were obtained:
# [1] = target: (MCA)-His-Gln-Ser-Arg-Pro-Trp-Gly-Leu-Gly-Ser-Lys (DNP)-D-Arg (SEQ ID NO: 660)
# [2] = target: (MCA)-His-Gln-Ser-Arg-Ser-Ala-Ile-Ala-Leu-Gly-Ser-Lys (DNP)-D-Arg (SEQ ID NO: 655)
# [3] = target: (MCA)-His-Gln-Ser-Arg-Ser-Ala-Ile-Ala-Leu-X1-Gly-Lys (DNP)-D-Arg (SEQ ID NO: 654) where X1 is Y
# [4] = target: (MCA)-His-Gln-Ser-Arg-Ser-Ala-Ile-Ala-Leu-X1-X2-Lys (DNP)-D-Arg (SEQ ID NO: 653) where X1 is Y and X2 is A
# [5] = target: (MCA)-His-Gln-Ser-Arg-Ser-Gly-Pro-Trp-Gly-Leu-X1-Lys (DNP)-D-Arg (SEQ ID NO: 659) where X1 is absent
# [6] = target: (MCA)-His-Gln-Ser-Arg-Ser-Pro-Trp-Gly-Gly-Ser-Lys (DNP)-D-Arg (SEQ ID NO: 661)
# [7] = target: (MCA)-His-Gln-Ser-Arg-Ser-Pro-Trp-Gly-Leu-Gly-Lys (DNP)-D-Arg (SEQ ID NO: 665)
# [8] = target: (MCA)-Ser-Pro-Trp-Gly-Leu-His-Gln-Ser-Arg-Gly-Lys (DNP)-D-Arg (SEQ ID NO: 663)
# [9] = target: (MCA)-Ser-Pro-Trp-Gly-Leu-His-Gln-Ser-Arg-Ser-Lys (DNP)-D-Arg (SEQ ID NO: 657)
# [10] = target: (MCA)-Ser-Pro-Trp-Gly-Leu-His-Gln-Ser-Lys-Ser-Lys (DNP)-D-Arg (SEQ ID NO: 664)
# [11] = target: D-Arg-Lys (DNP)-Ala-Ile-Ala-Leu-His-Gln-Ser-Arg-Ser-Lys (MCA)-D-Arg (SEQ ID NO: 658)
# [12] = target: peptide probe with CM … (SEQ ID NO: 641)
# [13] = target: peptide probe with CM … (SEQ ID NO: 642)
# [14] = target: peptide probe with CM … (SEQ ID NO: 643)
# [15] = target: peptide probe with CM … (SEQ ID NO: 644)
# [16] = target: peptide probe with CM … (SEQ ID NO: 645)
# [17] = target: peptide probe with CM … (SEQ ID NO: 646)
# [18] = target: peptide probe with CM … (SEQ ID NO: 647)
# [19] = target: peptide probe with CM … (SEQ ID NO: 639)
# [20] = target: peptide probe with CM … (SEQ ID NO: 648)
# [21] = target: peptide probe with CM … (SEQ ID NO: 649)
# [22] = target: peptide probe with CM … (SEQ ID NO: 650)
Protein,Probe Cleavage (pM/s) [1] [pM/s],Probe Cleavage (pM/s) [2],Probe Cleavage Kcat/KM [2] [M⁻¹ s⁻¹],Probe Cleavage (pM/s) [3] [pM/s],Probe Cleavage Kcat/KM [3] [M⁻¹ s⁻¹],Probe Cleavage (pM/s) [4] [pM/s],Probe Cleavage Kcat/KM [4] [M⁻¹ s⁻¹],Probe Cleavage (pM/s) [5] [pM/s],Probe Cleavage (pM/s) [6] [pM/s],Probe Cleavage (pM/s) [7] [pM/s],Probe Cleavage (pM/s) [8] [pM/s],Probe Cleavage (pM/s) [9] [pM/s],Probe Cleavage Kcat/KM [9] [M⁻¹ s⁻¹],Probe Cleavage (pM/s) [10] [pM/s],Probe Cleavage (pM/s) [11] [pM/s],Probe Cleavage Kcat/KM [11] [M⁻¹ s⁻¹],Probe Cleavage (pM/s) [12],Probe Cleavage (pM/s) [13] [pM/s],Probe Cleavage (pM/s) [14] [pM/s],Probe Cleavage (pM/s) [15] [pM/s],also measured
B1,32,Above limit of quantitation,510000,1960,790000,1750,630000,9930,3470,1210,540,1280,28000,1630,11500,55000,Above limit of quantitation,1860,11300,8,Probe Cleavage Kcat/KM [7]: 35000 M⁻¹ s⁻¹; Probe Cleavage (pM/s) [16]: 7330 pM/s; Probe Cleavage (pM/s) [17]: Above limit of quantitation; Probe Cleavage (pM/s) [18]: Above limit of quantitation; Probe Cleavage (pM/s) [19]: 10800 pM/s; Probe Cleavage (pM/s) [20]: 4120 pM/s; Probe Cleavage (pM/s) [21]: 7780 pM/s; Probe Cleavage (pM/s) [22]: 7920 pM/s
B2,4020,76.9 pM/s,4900,434,67000,468,29000,94.8,61.6,44.2,6840,2550,54000,6640,4220,17000,726 pM/s,692,623,696,Probe Cleavage (pM/s) [16]: 594 pM/s; Probe Cleavage (pM/s) [17]: 1390 pM/s; Probe Cleavage (pM/s) [18]: 65.4 pM/s; Probe Cleavage (pM/s) [19]: 17600 pM/s; Probe Cleavage (pM/s) [20]: 488 pM/s; Probe Cleavage (pM/s) [21]: 61.1 pM/s; Probe Cleavage (pM/s) [22]: 410 pM/s
